Assay [1] addresses integrin β3 cytoplasmic tail (UniProt P05106). Put plainly: ITC.
The target in assay [2] is skelemin tandem IgC2 domains 4 and 5 with the interconnecting linker, C1354S (mouse). The assay is described as follows: ITC.

integrin β3 cytoplasmic tail, sequence (P05106 742-788): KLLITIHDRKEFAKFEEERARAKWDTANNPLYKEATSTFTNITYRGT

“integrin αIIb cytoplasmic tail peptide (starting from W988)”: in assay [1], the Kd is 5.7 µM. Besides, in assay [2], the dH is -0.382 kcal/mol and the stoichiometry N was 1.26.
